We go through one molecule from patent US20260092113A1 (Sanofi, published 2026).

The EC50 (read off the curve) is the concentration that produces a half-maximal response. Higher therefore signals a less potent agent.

This assay addresses T1, human OX40 on the surface of target cells (HEK293 cells expressing human OX40, jurkat cells engineered to … (human, UniProt P43489 29-277)).
T1 construct: whole, on cells; also called huOX40
T1 sequence (looked up): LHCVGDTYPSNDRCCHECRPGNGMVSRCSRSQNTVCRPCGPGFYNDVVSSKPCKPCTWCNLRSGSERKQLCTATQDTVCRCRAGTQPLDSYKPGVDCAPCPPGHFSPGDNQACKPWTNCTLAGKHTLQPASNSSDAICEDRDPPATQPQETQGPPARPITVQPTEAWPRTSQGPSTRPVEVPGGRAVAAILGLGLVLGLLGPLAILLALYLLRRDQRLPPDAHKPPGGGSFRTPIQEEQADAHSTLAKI
As to the kind of experiment: flow cytometry on HEK293 cells expressing human OX40, anti-human IgG Fc PE, MFI. (In general: A flow cytometer gives signals particle by particle.)

Excerpt: The cell lines used were HEK293 cells expressing human OX40 or cyno OX40, jurkat cells, and jurkat cells engineered to express human OX40. […] Frozen target cells were thawed and seeded at 5×10⁴ cells per well.
For live dead cell discrimination cells were stained according to manufacturer's protocol using the LIVE/DEAD™ Fixable Yellow Dead Cell Stain Kit (Molecular Probes, L34959).

B1: bispecific antibody L1 (anti-CD28/anti-OX40) (bispecific antibody, human IgG1, kappa, L234A L235A)
light: not shown
heavy: not shown
chain: DVQLVESGGGVVQPGGSLRLSCAASGSFFSIDTMDWYRQAPGKQRELVTGVTSGGLTNYADSVKGRFTISIDNAKNTVYLQMNSLRPEDTALYYCSARIRTSGGGGWSTYWGQGTLVTVSSGGGGSDKTHTCPPCPAPEAAGGPSVFLFPPKPKDTLMISRTPEVTCVVVDVSHEDPEVKFNWYVDGVEVHNAKTKPREEQYNSTYRVVSVLTVLHQDWLNGKEYKCKVSNKALPAPIEKTISKAKGQPREPQVCTLPPSRDELTKNQVSLSCAVKGFYPSDIAVEWESNGQPENNYKTTPPVLDSDGSFFLVSKLTVDKSRWQQGNVFSCSVMHEALHNRFTQKSLSLSPG
notes: also called L1 & L4 OX40 arm x L1 & L3 & L2 CD28 arm
Consider B1, for which the 50% effective concentration (EC50 (read off the curve)) was approximately 0.8 nM.
